Laboratory results from paper PMC5464003.

B1: 35S-Methionine-MDT-6 (natural protein)
chain: MMPRMGPPAAARQDNPLHVSFRNPQWPPNFINKDNVLDYFCNQANAFYEMNSCNQQIRMQNIVNRTVEECLRTMPGIQYVLWYSQPPLFIICKQRRNNVTNVSPIAYYYVINGSVHQAPDMYSLVQSRLLGALEPLRNAFGEVTNYSRYNTAKGYYWEFKNKPNVKKREEEKKEDEEEKLEDRSTNFQKTRTMMLLNQLFSEMPAEDALEREEKEEVEEEEEETLKTEEPTTSTDEPKFAEPTARTTSKQ
modifications: 35S-methionine label
B2: His6-MDT-30-FLAG (natural protein)
chain: MNPNQPPNYPPGNPNQPPPFPPTPYYPMYQAGMPMPYIPQSPQYPQPGPPGGPPPFMGIQIKQEPMWSQENRYGMQAGPSGMPGMPPSSHPYGYPPMHGMPPGMPQGMPPMMDPNMPDFSSPPMHHPTTSLLAQHLSSAPLPPAPPQQQSHLSQLLQQPTTYSTATNPHAAPTQTIARRPDNEARNAQLQEQELAARQQQQQEYMLQQHQQQQQNRAGQLQAEQAFANPPTVSIPPQTGHPPQQTSASSQQRAQETMAQQTEPQSHIRESPQKETNLEKYSTGELCLYGRELVNDLNVKTSYLSTILKKVMERKPLNQGENPNDLADQCKNALQRMSDIRQIIEKRREPTWKRMTGEDYIELMLDDSELKKPMDEERQKRRAELEQRFAIVISKTPPVEGHIWYQGKWISEELHKKYMQFEANKEIVKNLAAELKALAWKIDVTSPGHLKKVDQTKISKKKTDDQV

What was measured:
GST-F28F8.5 (C. elegans) [1] = target: GST-F28F8.5 (C. elegans) (UniProt H9G301); experiment: pull-down; GST-F28F8.5 or GST adsorbed in equal amounts on glutathione-agarose, incubated with 35S-MDT-6 from rabbit reticulocyte lysate; bound fraction resolved by PAGE, autoradiography, excised bands counted by scintillation
GST-F28F8.5 (C. elegans) [2] = target: GST-F28F8.5 (C. elegans) (UniProt H9G301); experiment: pull-down; GST-F28F8.5 or GST adsorbed in equal amounts on glutathione-agarose, incubated with His6-MDT-30-FLAG purified on a nickel column; Western blot with anti-FLAG M2, densitometry (ImageJ)

Binder | fold enrichment over GST alone (GST-F28F8.5 (C. elegans) [1]) [fold] | fold enrichment over GST alone (GST-F28F8.5 (C. elegans) [2]) [fold]
B1 | 7.7 | 
B2 |  | 2.5
